# Laboratory results published in article PMC11274882, “RNA Binding Properties of SOX Family Members”.
# What was measured:
# [1] = molecular target: T1, SOX30 HMG-box (UniProt O94993 335-423); experiment: EMSA; FP: 50 mM Tris, 125 mM NaCl, pH 8.0, 80 nM RNA, temperature not stated; EMSA: equal volumes of 100 uM protein and ssDNA, room temperature 15 min, 1.5% agarose; details: protein: recombinant; tags: 6xHis; named 60-mer; length as printed may differ
# T1 sequence: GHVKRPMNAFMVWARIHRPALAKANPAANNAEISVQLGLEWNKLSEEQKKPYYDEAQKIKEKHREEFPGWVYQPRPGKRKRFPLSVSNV
# [2] = molecular target: SRY HMG-box (UniProt Q05066 58-140); experiment: as above; details: protein: recombinant; tags: 6xHis; named 60-mer; length as printed may differ
# Sequence of SRY HMG-box (Q05066 58-140): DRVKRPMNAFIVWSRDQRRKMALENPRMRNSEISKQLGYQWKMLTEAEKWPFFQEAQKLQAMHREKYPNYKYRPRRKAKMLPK
# [3] = molecular target: SOX15 HMG-box (UniProt O60248 47-135); experiment: as above; details: protein: recombinant; tags: 6xHis; named 60-mer; length as printed may differ
# Sequence of SOX15 HMG-box (O60248 47-135): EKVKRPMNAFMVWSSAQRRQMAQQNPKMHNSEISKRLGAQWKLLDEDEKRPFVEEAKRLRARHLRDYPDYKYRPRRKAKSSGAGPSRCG
# [4] = molecular target: T2, SOX17 HMG-box WT (UniProt Q9H6I2 66-145); experiment: as above; details: protein: recombinant, tags: 6xHis
# T2 sequence (Q9H6I2 66-145): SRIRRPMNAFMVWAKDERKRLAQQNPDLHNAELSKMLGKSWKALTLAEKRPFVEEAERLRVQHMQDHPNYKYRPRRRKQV
# [5] = molecular target: SOX11 HMG-box (UniProt P35716 47-135); experiment: as above; details: protein: recombinant; tags: 6xHis; named 60-mer; length as printed may differ
# Sequence of SOX11 HMG-box (P35716 47-135): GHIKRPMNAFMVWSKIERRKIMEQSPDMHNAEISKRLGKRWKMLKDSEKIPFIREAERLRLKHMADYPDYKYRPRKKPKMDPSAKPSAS
# [6] = molecular target: SOX9 HMG-box (UniProt P48436 103-183); experiment: as above; details: protein: recombinant; tags: 6xHis; named 60-mer; length as printed may differ
# Sequence of SOX9 HMG-box (P48436 103-183): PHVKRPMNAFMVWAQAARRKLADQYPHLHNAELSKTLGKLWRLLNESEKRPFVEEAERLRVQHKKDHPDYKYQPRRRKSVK
# [7] = molecular target: SOX6 HMG-box (UniProt P35712 619-707); experiment: as above; details: protein: recombinant; named 60-mer; length as printed may differ
# Sequence of SOX6 HMG-box (P35712 619-707): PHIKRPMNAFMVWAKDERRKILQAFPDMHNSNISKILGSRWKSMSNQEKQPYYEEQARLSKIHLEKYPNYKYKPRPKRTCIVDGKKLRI
# [8] = molecular target: SOX21 HMG-box (UniProt Q9Y651 6-94); experiment: EMSA; complex stays in well; FP: 50 mM Tris, 125 mM NaCl, pH 8.0, 80 nM RNA, temperature not stated; EMSA: equal volumes of 100 uM protein and ssDNA, room temperature 15 min, 1.5% agarose; details: protein: recombinant; tags: 6xHis; named 60-mer; length as printed may differ
# Sequence of SOX21 HMG-box (Q9Y651 6-94): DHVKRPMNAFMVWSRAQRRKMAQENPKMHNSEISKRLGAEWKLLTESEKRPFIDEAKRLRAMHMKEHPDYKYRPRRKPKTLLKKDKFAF
# [9] = molecular target: T3, SOX2 HMG-box (UniProt P48431 39-127); experiment: as above; details: protein: recombinant; named 60-mer; length as printed may differ
# T3 sequence (P48431 39-127): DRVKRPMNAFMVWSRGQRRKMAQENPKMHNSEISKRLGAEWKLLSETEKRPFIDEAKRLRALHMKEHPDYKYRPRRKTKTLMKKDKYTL
# [10] = molecular target: T2, SOX17 HMG-box WT; experiment: NMR HSQC titration; 100 uM protein, 25-100 uM ssDNA; shifts at R125-R138, I68, A74, M76, E97, K100, W106; FP: 50 mM Tris, 125 mM NaCl, pH 8.0, 80 nM RNA, temperature not stated; EMSA: equal volumes of 100 uM protein and ssDNA, room temperature 15 min, 1.5% agarose; details: protein: recombinant; tags: 6xHis
# [11] = molecular target: T1, SOX30 HMG-box; experiment: fluorescence polarisation; FP: 50 mM Tris, 125 mM NaCl, pH 8.0, 80 nM RNA, temperature not stated; EMSA: equal volumes of 100 uM protein and ssDNA, room temperature 15 min, 1.5% agarose; details: protein: recombinant; tags: 6xHis; label: 3' FAM; hairpin
# [12] = molecular target: T4, SOX17 dC HMG-box (UniProt Q9H6I2 66-137); experiment: as above; details: protein: recombinant; tags: 6xHis; label: 3' FAM; hairpin
# T4 sequence (Q9H6I2 66-137): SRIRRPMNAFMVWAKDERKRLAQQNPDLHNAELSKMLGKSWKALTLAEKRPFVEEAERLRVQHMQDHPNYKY
# [13] = molecular target: T3, SOX2 HMG-box; experiment: as above; details: protein: recombinant; label: 3' FAM; hairpin
# [14] = molecular target: T5, SOX17 dCN HMG-box (UniProt Q9H6I2 74-137); experiment: as above; details: protein: recombinant; tags: 6xHis; label: 3' FAM; hairpin
# T5 sequence (Q9H6I2 74-137): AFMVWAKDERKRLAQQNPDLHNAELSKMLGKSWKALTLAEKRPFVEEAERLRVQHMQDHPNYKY
# [15] = molecular target: T2, SOX17 HMG-box WT; experiment: as above; details: protein: recombinant; tags: 6xHis; label: 3' FAM; hairpin
# [16] = molecular target: T4, SOX17 dC HMG-box; experiment: EMSA; FP: 50 mM Tris, 125 mM NaCl, pH 8.0, 80 nM RNA, temperature not stated; EMSA: equal volumes of 100 uM protein and ssDNA, room temperature 15 min, 1.5% agarose; details: protein: recombinant; tags: 6xHis
# [17] = molecular target: T5, SOX17 dCN HMG-box; experiment: as above; details: protein: recombinant; tags: 6xHis
# [18] = molecular target: SOX17 dN HMG-box (UniProt Q9H6I2 74-145); experiment: as above; details: protein: recombinant; tags: 6xHis
# Sequence of SOX17 dN HMG-box (Q9H6I2 74-145): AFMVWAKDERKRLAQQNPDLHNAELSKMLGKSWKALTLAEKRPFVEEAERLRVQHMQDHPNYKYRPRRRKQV
binder,measurement,setting,value
60-mer ssDNA (ssDNA) DNA: GTTAGAGGTGCCCCACAGGCGGCGGTTAGTATTCCCCGCCGCCTGGGGCACCGGGGCAC,binding result,[1],no binding
same,binding result,[2],binds
same,binding result,[3],binds
same,binding result,"[4]; named 60-mer, length as printed may differ",binds
same,binding result,[5],binds
same,binding result,[6],binds
same,binding result,[7],binds
same,binding result,[8],binds
same,binding result,[9],binds
ATCGATCGATCG (ssDNA) [12-mer ssDNA],binding result,[10],binds
"GGUCGCCGUGGCCACUUCGAAAGGGGUGGAAAGGGCGACC (structured_RNA) [40-mer RNA, ES2 lncRNA hairpin Loop A]",binding result,[11],no binding
same,binding result,[12],no binding
same,Kd,[13],~57 nM
same,binding result,[14],no binding
same,Kd,[15],~327 nM
CCCCATCTTAGTATATTAGTTA (ssDNA) [22-mer ssDNA],binding result,[16],no binding
same,binding result,[17],no binding
same,binding result,[18],binds
same,binding result,[4],binds
